For one data set, the system named is AF10PZP WT (mouse). Nature of the data set: fluorescence polarization. To be noted: S1/2, FP: 25 mM Tris-HCl pH 7.5, 75 mM NaCl, 0.00625% Tween20, 5 mM DTT, 5 nM NCP, NCP EMSA: 25 mM Tris pH 7.5, 75 mM NaCl, 10% glycerol, 0.005% Tween 20, 4 C, DNA …. On the technique in general: Fluorescence polarisation rises when a labelled molecule tumbles more slowly, as on binding a larger partner.

For data set [1], the target named is nucleosome core particle reconstituted with 207 bp DNA (NCP207) (human) (UniProt P0C0S8). Nature of the data set: fluorescence polarisation; 5 nM fluorescein-labelled NCP with increasing AF10PZP WT or mutants; 75 mM NaCl, 25 mM Tris-HCl pH 7.5, 0.00625% Tween20, 5 mM DTT; fit to a binding isotherm, S1/2.
The test system of the next data set is AF10PZP D43K (mouse). Nature of the data set: fluorescence polarization. Particulars: 75 mM NaCl; S1/2; FP: 25 mM Tris-HCl pH 7.5, 75 mM NaCl, 0.00625% Tween20, 5 mM DTT, 5 nM NCP; NCP EMSA: 25 mM Tris pH 7.5, 75 mM NaCl, 10% glycerol, 0.005% Tween 20, 4 C; DNA ….
Another data set concerns AF10PZP E179K (mouse). Put plainly: fluorescence polarization. To be noted: 75 mM NaCl; S1/2; FP: 25 mM Tris-HCl pH 7.5, 75 mM NaCl, 0.00625% Tween20, 5 mM DTT, 5 nM NCP; NCP EMSA: 25 mM Tris pH 7.5, 75 mM NaCl, 10% glycerol, 0.005% Tween 20, 4 C; DNA ….
Data set [2] addresses nucleosome reconstituted with 147 bp 601 DNA (NCP147) (human) (UniProt P0C0S8). Nature of the data set: fluorescence polarisation; 5 nM fluorescein-labelled NCP with increasing AF10PZP WT or mutants; 75 mM NaCl, 25 mM Tris-HCl pH 7.5, 0.00625% Tween20, 5 mM DTT; fit to a binding isotherm, S1/2.
For data set [3], the target named is nucleosome core particle reconstituted with 207 bp DNA (NCP207), P0C0S8;P62807;Q71DI3;P62805. Nature of the data set: fluorescence anisotropy. Particulars: chain shown with the change.

On to NCP147, for which, in the data set with AF10PZP WT (mouse) (75 mM NaCl), the K half is 15 µM.
“AF10PZP D43K mutant (aa 19–208) (from UniProt O54826 19-208) (domain or fragment)” returned an S1/2 in data set [1] of 9 µM.
“AF10PZP E179K mutant (aa 19–208) (from UniProt O54826 19-208) (domain or fragment)” registered an S1/2 in data set [1] of 14 µM.
207 bp 601 DNA returned a K half in the data set on AF10PZP WT (mouse) of 8 µM.
Consider NCP207, for which the K half came to 6 µM in the data set on AF10PZP WT (mouse) (75 mM NaCl), 9 µM with AF10PZP D43K (mouse) and 14 µM in the data set on AF10PZP E179K (mouse).
Consider “PZP domain of AF10 (AF10PZP, aa 19–208), wild type (from UniProt O54826 19-208) (domain or fragment)”, for which the S1/2 in data set [2] was 15 µM; in data set [1], 6 µM.

B1: PZP domain of AF10 (AF10PZP, aa 19–208), wild type, O54826 D43K (protein)
chain: KEMIGGCCVCSDERGWAENPLVYCKGHGCSVAVHQACYGIVQVPTGPWFCRKCESQERAARVRCELCPHKDGALKRTDNGGWAHVVCALYIPEVQFANVSTMEPIVLQSVPHDRYNKTCYICDEQGRESKAATGACMTCNKHGCRQAFHVTCAQFAGLLCEEEGNGADNVQYCGYCKYHFSKLKKSKRGS
In data set [3], B1 registered a Kd of 9 µM.

Usually Kd stands for the concentration at which binding is half-saturated. Read a high Kd as lower affinity.

Source of the values: PMC8257627.
